This data set concerns the molecule itself. The data set is described as follows: thioflavin T fluorescence of fibril formation; I59T lysozyme 6.8 μM, 0.1 M citrate buffer pH 5.0, 25 μM ThT, 60 °C, with stirring; self-association into fibrils.

Data on one protein can be found in paper PMC3581772, “Protease-activated alpha-2-macroglobulin can inhibit amyloid formation via two distinct mechanisms” (Febs Letters, 2013).

B1: I59T human lysozyme (natural protein, UniProt P61626 19-148, looked up)
chain: KVFERCELARTLKRLGMDGYRGISLANWMCLAKWESGYNTRATNYNAGDRSTDYGIFQTNSRYWCNDGKTPGAVNACHLSCSALLQDNIADAVACAKRVVRDPQGIRAWVAWRNRCQNRDVRQYVQGCGV
notes: human lysozyme, non-natural variant I59T; monomer 14.7 kDa; also called I59T lysozyme; source: expressed and purified as previously described [16]
For the protein B1, the binding result is reported as “binds”.
